PMC2796330

Biological target: the unphosphorylated T-PY motif (Smad2 or Smad3 peptide)
Assay: ITC

fold lower affinity than for the pT-PY motif peptide: 7 to 15 fold
Substance: recombinant Nedd4L WW2 domain (domain or fragment)
